Variants at the floor of the assay were thinned out.
Legend:
[1] = system: biotinyl-Phe-oxazolone; experiment: self-aminoacylation, catalytic enhancement (BFO) (fold over background); higher = more active; k-Seq, kA / k0A0; sequences stand for … in GGGAAUGGAUCCACAUCUACGAAUUC…UUCACUGCAGACUUGACGAAGCUG
Summary of the method: (§1)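 Mutagenized RNA pools (0.43 μM; 21-nt variable region) were treated with 2–1250 μM of each biotinyl-aminoacyl-oxazolone. Conditions were 50 μL HEPES/NaCl/KCl/MgCl2/CaCl2 buffer, 5% acetonitrile, pH 6.9–7.0, room temperature, 90 minutes. Catalytic enhancement, the median kA relative to the uncatalyzed rate, was derived from streptavidin capture, qPCR and Illumina sequencing.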

[2] = system: biotinyl-Ile-oxazolone; experiment: self-aminoacylation, catalytic enhancement (BIO) (fold over background); higher = more active; k-Seq, kA / k0A0; sequences stand for … in GGGAAUGGAUCCACAUCUACGAAUUC…UUCACUGCAGACUUGACGAAGCUG
Summary of the method: as §1

[3] = system: biotinyl-Met-oxazolone; experiment: self-aminoacylation, catalytic enhancement (BMO) (fold over background); higher = more active; k-Seq, kA / k0A0; sequences stand for … in GGGAAUGGAUCCACAUCUACGAAUUC…UUCACUGCAGACUUGACGAAGCUG
Summary of the method: as §1

[4] = system: biotinyl-Val-oxazolone; experiment: self-aminoacylation, catalytic enhancement (BVO) (fold over background); higher = more active; k-Seq, kA / k0A0; sequences stand for … in GGGAAUGGAUCCACAUCUACGAAUUC…UUCACUGCAGACUUGACGAAGCUG
Summary of the method: as §1

[5] = system: biotinyl-Leu-oxazolone; experiment: self-aminoacylation, catalytic enhancement (BLO) (fold over background); higher = more active; k-Seq, kA / k0A0; sequences stand for … in GGGAAUGGAUCCACAUCUACGAAUUC…UUCACUGCAGACUUGACGAAGCUG
Summary of the method: as §1

[6] = system: biotinyl-Trp-oxazolone; experiment: self-aminoacylation, catalytic enhancement (BWO) (fold over background); higher = more active; k-Seq, kA / k0A0; sequences stand for … in GGGAAUGGAUCCACAUCUACGAAUUC…UUCACUGCAGACUUGACGAAGCUG
Summary of the method: as §1

| Sequence | self-aminoacylation [1] | self-aminoacylation [2] | self-aminoacylation [3] | self-aminoacylation [4] | self-aminoacylation [5] | self-aminoacylation [6] |
| --- | --- | --- | --- | --- | --- | --- |
| CCACACUUCCAGUAAUCGGUC [Fam1B.1 aminoacylation ribozyme variant] | 0.618 | 1.02 | 0.791 | 1.1 | 0.829 | 0.792 |
| CCACACUUCCCGCAAUCGGUC [Fam1B.1 aminoacylation ribozyme variant] | 0.932 | 1.42 | 1.5 | 1.78 | 1.73 | 1.37 |
| CCACACUUCCGGCAAUCGGUC [Fam1B.1 aminoacylation ribozyme variant] | 5.25 | 1.72 | 2.02 | 2.12 | 1.59 | 2.13 |
| CCACACUUCGAGCAAUAGGUC [Fam1B.1 aminoacylation ribozyme variant] | 0.533 | 0.703 | 0.588 | 0.785 | 0.446 | 0.361 |
| CCACACUUCGAGCAAUCGAUC [Fam1B.1 aminoacylation ribozyme variant] | 0.547 | 0.471 | 0.361 | 0.481 | 0.487 | 0.387 |
| CCACACUUCGAGCAAUCGGAC [Fam1B.1 aminoacylation ribozyme variant] | 0.331 | 0.916 | 0.897 | 1.67 | 0.935 | 0.929 |
| CCACACUUCGAGCAAUCGGUU [Fam1B.1 aminoacylation ribozyme variant] | 0.768 | 1.41 | 1.83 | 1.63 | 1.1 | 1.65 |
| CCACACUUCGAUCAAUCGGUC [Fam1B.1 aminoacylation ribozyme variant] | 0.966 | 0.826 | 0.767 | 0.871 | 0.777 | 0.903 |
| CCACACUUCGGGCAAUCGGUC [Fam1B.1 aminoacylation ribozyme variant] | 9.3 | 2.1 | 2.73 | 3.09 | 2.48 | 2.23 |
| CCACACUUCUAGCAAUCGAUC [Fam1B.1 aminoacylation ribozyme variant] | 0.626 | 0.556 | 0.447 | 0.716 | 0.457 | 0.432 |
| CCACACUUCUAUCAAUCGGUC [Fam1B.1 aminoacylation ribozyme variant] | 0.846 | 0.657 | 0.718 | 0.743 | 0.521 | 0.659 |
| CCACACUUCUGGCAAUCGGUC [Fam1B.1 aminoacylation ribozyme variant] | 1.18 | 1.23 | 1.26 | 1.49 | 1.54 | 0.873 |
| CCACACUUCUUGCAAUCGGUC [Fam1B.1 aminoacylation ribozyme variant] | 0.7 | 0.783 | 0.76 | 0.765 | 0.72 | 0.654 |
| CCACACUUGAAGCAACCGGUC [Fam1B.1 aminoacylation ribozyme variant] | 0.953 | 0.886 | 0.694 | 1.04 | 0.699 | 0.938 |
| CCACACUUGAAGCAAUAGGUC [Fam1B.1 aminoacylation ribozyme variant] | 0.578 | 0.563 | 0.509 | 0.513 | 0.471 | 0.438 |
| CCACACUUGAAGCAAUCGAUC [Fam1B.1 aminoacylation ribozyme variant] | 0.662 | 0.482 | 0.436 | 0.612 | 0.407 | 0.348 |
| CCACACUUGAAGCAAUCGGGC [Fam1B.1 aminoacylation ribozyme variant] | 5.71 | 1.55 | 1.34 | 2.63 | 1.57 | 2.26 |
| CCACACUUGAAGCAAUCGUUC [Fam1B.1 aminoacylation ribozyme variant] | 0.863 | 0.685 | 0.487 | 0.825 | 0.674 | 0.436 |
| CCACACUUGAAGCAAUUGGUC [Fam1B.1 aminoacylation ribozyme variant] | 0.359 | 0.643 | 0.63 | 0.587 | 0.539 | 0.386 |
| CCACACUUGAAGCGAUCGGUC [Fam1B.1 aminoacylation ribozyme variant] | 1.67 | 1.41 | 1.36 | 1.39 | 0.996 | 0.952 |
| CCACACUUGAAGGAAUCGGUC [Fam1B.1 aminoacylation ribozyme variant] | 1.23 | 1.28 | 1.39 | 1.39 | 1.55 | 1.71 |
| CCACACUUUAAGAAAUCGGUC [Fam1B.1 aminoacylation ribozyme variant] | 0.835 | 0.841 | 0.607 | 0.663 | 0.782 | 0.727 |
| CCACACUUUAAGCAAUCGCUC [Fam1B.1 aminoacylation ribozyme variant] | 0.598 | 0.99 | 1.1 | 1.08 | 0.897 | 1.2 |
| CCACACUUUAAGCAAUCGGAC [Fam1B.1 aminoacylation ribozyme variant] | 0.866 | 0.85 | 0.664 | 0.839 | 0.737 | 0.544 |
| CCACACUUUAAGCAAUCGGGC [Fam1B.1 aminoacylation ribozyme variant] | 1.22 | 1.61 | 1.63 | 1.34 | 1.65 | 1.01 |

Reference: the supplement of paper PMC9233669
